This note sets out measurements from publication PMC6954417.

This assay concerns the target DSS1 (human). As to the kind of experiment: MST; labelled DSS1 50 nM constant, RAD52 1 nM to 36 uM, 30 mM Tris-acetate pH 7.5, 1 mM DTT, 25°C, quadratic binding equation.

B1: RAD52 (natural protein)
chain: MSGTEEAILGGRDSHPAAGGGSVLCFGQCQYTAEEYQAIQKALRQRLGPEYISSRMAGGGQKVCYIEGHRVINLANEMFGYNGWAHSITQQNVDFVDLNNGKFYVGVCAFVRVQLKDGSYHEDVGYGVSEGLKSKALSLEKARKEAVTDGLKRALRSFGNALGNCILDKDYLRSLNKLPRQLPLEVDLTKAKRQDLEPSVEEARYNSCRPNMALGHPQLQQVTSPSRPSHAVIPADQDCSSRSLSSSAVESEATHQRKLRQKQLQQQFRERMEKQQVRVSTPSAEKSEAAPPAPPVTHSTPVTVSEPLLEKDFLAGVTQELIKTLEDNSEKWAVTPDAGDGVVKPSSRADPAQTSDTLALNNQMVTQNRTPHSVCHQKPQAKSGSWDLQTYSADQRTTGNWESHRKSQDMKKRKYDPS
The term Kd denotes a measure of binding affinity in units of concentration. A higher Kd goes with weaker binding. Regarding B1, the Kd was determined as 14 nM.
